Data: paper PMC8949286, “A New Strategy for As(V) Biosensing Based on the Inhibition of the Phosphatase Activity of the Arsenate Reductase from Thermus thermophilus” (International Journal of Molecular Sciences, 2022)

T1: TtArsC (Thermus thermophilus, UniProt Q72HI5)
T1 construct: gene TT_C1502; recombinant, pET30/TtarsC in E. coli BL21-CodonPlus(DE3)-RIL; thermo-precipitation, anion exchange (Resource Q), gel filtration (Superdex S75); no tag mentioned
T1 sequence (Q72HI5 1-150): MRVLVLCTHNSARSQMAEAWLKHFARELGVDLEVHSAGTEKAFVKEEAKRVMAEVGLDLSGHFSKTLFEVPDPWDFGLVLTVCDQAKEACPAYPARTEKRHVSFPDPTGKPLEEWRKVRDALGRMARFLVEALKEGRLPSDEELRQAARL

B1: TtArsC (Thermus thermophilus HB27) (protein)
chain: T1 sequence (Q72HI5 1-150)
notes: recombinant, pET30/TtarsC in E. coli BL21-CodonPlus(DE3)-RIL; thermo-precipitation, anion exchange (Resource Q), gel filtration (Superdex S75); no tag mentioned

Columns and labels:
TtArsC = molecular target: T1, TtArsC; test: biochemical
purified protein = substrate: O=[N+]([O-])c1ccc(OP(=O)(O)O)cc1; test: purified protein; format: biochemical, Thermus thermophilus; conditions: no inhibitor, 4 µM enzyme, 20 mM Tris-HCl pH 7, 60 °C

Molecule | Ki (TtArsC) | Km (purified protein) | Vmax (purified protein) | kcat (purified protein)
O=[As]O [As(III)] | 394 ± 40.3 µM |  |  | 
B1 |  | 9.57 ± 1.95 mM | 0.0193 µmol/min/mg | 0.005 s⁻¹
